Data set [1] has as its target T1, Prostate specific antigen (PSA) (UniProt P07288 25-261). The data set can be described thus: electrochemical impedance spectroscopy, CV and DPV (immobilized aptamer); 5 mM [Fe(CN)6]3-/4-; also EIS without redox probe; LOD 0.14 ng/mL; 0.1 M PBS pH 7.4, with or without 5 mM [Fe(CN)6]3-/4-; PSA 0-11.06 ng/mL; temperature not stated. The conditions noted are these: protein: commercial.

In data set [2] the target is T1, Prostate specific antigen (PSA). As to the kind of experiment: electrochemical impedance spectroscopy (immobilized DNA); Rct unchanged with PSA; 0.1 M PBS pH 7.4, with or without 5 mM [Fe(CN)6]3-/4-; PSA 0-11.06 ng/mL; temperature not stated. The conditions noted are these: protein: commercial.

T1 sequence (P07288 25-261): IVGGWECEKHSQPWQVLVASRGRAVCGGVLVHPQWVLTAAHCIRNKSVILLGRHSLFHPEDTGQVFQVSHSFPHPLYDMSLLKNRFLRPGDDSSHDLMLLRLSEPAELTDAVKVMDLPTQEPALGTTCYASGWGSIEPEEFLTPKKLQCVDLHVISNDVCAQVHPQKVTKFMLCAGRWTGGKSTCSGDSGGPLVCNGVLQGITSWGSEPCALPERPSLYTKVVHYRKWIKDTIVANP

On to ATTAAAGCTCGCCATCAAATAGC (ssDNA) [PSA-Aptamer], for which the binding result in data set [1] was “binds”.

TTTTGCCATCGGGGCCATGTTCAA (ssDNA) [random single strand DNA]: the binding result in data set [2] is on record as “no binding”.

These data come from publication PMC5792442, “A comparative Study of Aptasensor Vs Immunosensor for Label-Free PSA Cancer Detection on GQDs-AuNRs Modified Screen-Printed Electrodes”.
